Reference: paper PMC2213614 (The Journal of Cell Biology, 2008)

Target: T1, GST-[change] (aa 1–320) (S. cerevisiae, UniProt P33332 1-320)
T1 sequence: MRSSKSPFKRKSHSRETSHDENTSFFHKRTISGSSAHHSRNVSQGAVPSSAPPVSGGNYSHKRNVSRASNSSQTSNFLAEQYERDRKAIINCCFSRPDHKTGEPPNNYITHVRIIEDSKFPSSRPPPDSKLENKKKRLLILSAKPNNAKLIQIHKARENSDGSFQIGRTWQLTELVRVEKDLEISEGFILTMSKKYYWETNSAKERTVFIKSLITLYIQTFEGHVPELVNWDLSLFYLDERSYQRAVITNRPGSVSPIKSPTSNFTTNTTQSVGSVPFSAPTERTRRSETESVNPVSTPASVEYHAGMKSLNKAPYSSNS
Assay: pull-down

B1: Hisx6-Cdc42 (natural protein)
chain: not shown
Q: Does B1 bind?
A: binds
